Test: observed amide hydrogen exchange rate constant kobs (stretched exponential fit, FD-normalized) (s^-1); higher = faster H/D exchange (less protection)
Details: pH 3 (pH read); temperature: 20 °C; D2O: 88%
In short: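 Uptake curves were fitted to a stretched single exponential with β = 0.8, and kobs, the observed exchange rate constant, is the fitted rate. The data came from Jurkat tryptic peptides (LysC/trypsin, carbamidomethylated cysteines) labeled in 88% D2O at pHread 3, 20 °C, then quenched with 0.23% formic acid at 13 times from 18 to 93,600 s in processing triplicates. MS1 uptake from a Q-Exactive HF, analyzed in HDExaminer with no back-exchange correction, was normalized to full-deuteration controls (24 h, 37 °C).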

Substance | observed amide hydrogen exchange rate constant kobs
AAGVNVEPFWPGLFAK | 0.000814
AAIDWFDGK | 0.00155
AAPEASGTPSSDAVSR | 0.00186
AAQEEYVK | 0.00112
AAVPSGASTGIYEALELRDNDK | 0.00126
ADLINNLGTIAK | 0.000815
AEDNADTLALVFEAPNQEK | 0.00102
AELNEFLTR | 0.00113
AFAMIIDK | 0.000626
AFLASPEYVNLPINGNGK | 0.000869
AGAHLQGGAK | 0.00372
AGFAGDDAPR | 0.00357
AGGFLMK | 0.00127
AGKPVICATQMLESMIK | 0.00088
AGLQFPVGR | 0.00107
AGNLGGGVVTIER | 0.000802
AHSSMVGVNLPQK | 0.000759
AIADTGANVVVTGGK | 0.00115
AIIIFVPVPQLK | 0.000266
AILVDLEPGTMDSVR | 0.0012
AIPQLQGYLR | 0.00091
AIVAIENPADVSVISSR | 0.00184
ALAAFLK | 0.000792

Substance | observed amide hydrogen exchange rate constant kobs
ALAENSGVK | 0.00135
ALELTGLK | 0.00115
ALENDPDCR | 0.00109
ALESPERPFLAILGGAK | 0.00092
ALGQNPTNAEVLK | 0.000979
ALLFIPR | 0.000533
ALPFWNEEIVPQIK | 0.000814
ALPGQLKPFETLLSQNQGGK | 0.0011
ALTSELANAR | 0.00115
ALTVPELTQQVFDAK | 0.000761
ALWFQGR | 0.00126
AMADPEVQQIMSDPAMR | 0.00104
AMGIMNSFVNDIFER | 0.00109
ANTFVAELK | 0.00102
APEPHVEEDDDDELDSK | 0.0038
APIIAVTR | 0.000401
AQQELEEQTRR | 0.00236
AQVARPGGDTIFGK | 0.00115
ARFEELNADLFR | 0.00175
ASILNTWISLK | 0.000492
ATENDIANFFSPLNPIR | 0.000823
ATFMVGSYGPRPEEYEFLTPVEEAPK | 0.00103
ATISNDGATILK | 0.00117

Substance | observed amide hydrogen exchange rate constant kobs
AVCMLSNTTAIAEAWAR | 0.000746
AVDDGVNTFK | 0.00173
AVDSQILPK | 0.000865
AVELAANTK | 0.00114
AVFPSIVGRPR | 0.000833
AVFVDLEPTVIDEVR | 0.000889
AVLVDLEPGTMDSVR | 0.00126
AVTEQGAELSNEER | 0.00216
AVTEQGHELSNEER | 0.00324
AYHEQLSVAEITNACFEPANQMVK | 0.00146
CAADLGLNK | 0.00234
CILQDGR | 0.00103
CPNLTHLNLSGNK | 0.00139
DAGPLLISLK | 0.000622
DAGTIAGLNVLR | 0.000899
DALSDLALHFLNK | 0.00125
DDGLFSGDPNWFPK | 0.00189
DEFEGLFK | 0.00163
DEILPTTPISEQK | 0.000626
DIFQEIFDK | 0.00131
DLADELALVDVIEDK | 0.00109
DLPLLLFR | 0.000629
DLSHIGDAVVISCAK | 0.00192

Substance | observed amide hydrogen exchange rate constant kobs
DLSLEEIQK | 0.00108
DLSTIEPLK | 0.000669
DLTDYLMK | 0.00113
DNLTLWTSDMQGDGEEQNK | 0.00177
DNSTMGYMMAK | 0.00115
DQIYDIFQK | 0.000729
DQLIYNLLK | 0.000541
DQQEAALVDMVNDGVEDLR | 0.00161
DQVANSAFVER | 0.00108
DRPFFAGLVK | 0.000655
DRPFFPGLVK | 0.000625
DRVTDALNATR | 0.000789
DSPSVWAAVPGK | 0.000933
DSTLIMQLLR | 0.000608
DSYVGDEAQSK | 0.00207
DTGIFLDLMHLK | 0.00141
DVIEEYFK | 0.00131
DVLFLK | 0.000617
DVNAAIATIK | 0.000675
DVNVNFEK | 0.00146
DYFGAHTYELLAK | 0.00186
DYFLFR | 0.00105
DYNVTANSK | 0.00116

Substance | observed amide hydrogen exchange rate constant kobs
EAEAAIYHLQLFEELRR | 0.00102
EAFSLFDK | 0.0018
EAILDIITSR | 0.0013
EALQDVEDENQ | 0.0022
EAMEDGEIDGNK | 0.0032
EANNFLWPFK | 0.000958
EDAANNYAR | 0.0026
EDLHDMLASLGK | 0.00199
EDQTEYLEER | 0.00222
EDSQRPGAHLTVK | 0.00212
EDSVKPGAHLTVK | 0.00181
EESGKPGAHVTVK | 0.00233
EFEPLLNWMK | 0.000734
EFHLNESGDPSSK | 0.00132
EGGLGPLNIPLLADVTR | 0.000844
EGIPALDNFLDKL | 0.00119
EGIPPDQQR | 0.00171
EGLELPEDEEEK | 0.00262
EGMNIVEAMER | 0.00123
EGVHGGLINKK | 0.0019
EIAEAYLGK | 0.00148
EIIDLVLDR | 0.00103
EILVGDVGQTVDDPYATFVK | 0.00102

Substance | observed amide hydrogen exchange rate constant kobs
EIQTAVR | 0.001
EISLWFKPEELVDYK | 0.000892
EITALAPSTMK | 0.000944
EIVLADVIDNDSWR | 0.00114
EKPYFPIPEEYTFIQNVPLEDR | 0.000754
ELGIWEPLAVK | 0.000742
ELISNASDALDK | 0.00184
ELISNSSDALDK | 0.00235
ELLDLLYK | 0.000866
ELLPEIR | 0.0016
ELQEMDKDDESLIK | 0.00203
ELSDFISYLQR | 0.000898
EMLQQSK | 0.00166
ENALVQMADGNQAQLAMSHLNGHK | 0.00127
EQFLDGDGWTSR | 0.00231
EQGVLSFWR | 0.00106
EQVANSAFVER | 0.00104
ESKDPADETEAD | 0.00321
ESTGAQVQVAGDMLPNSTER | 0.00119
ESTLHLVLR | 0.00129
ESVPEFPLSPPK | 0.00083
ESYSVYVYK | 0.000648
ETIEQEK | 0.00152

Substance | observed amide hydrogen exchange rate constant kobs
EVDEQMLNVQNK | 0.00132
EVFEDAAEIR | 0.002
EVFSMAGVVVR | 0.00144
EVLAGR | 0.00244
EVSTYIK | 0.000877
EVTPEGLQMVK | 0.000799
EVVEEAENGR | 0.00211
EWFLQAAK | 0.00111
FAAATGATPIAGR | 0.00118
FAAYFQQGDMESNGK | 0.00182
FAQPGSFEYEYAMR | 0.00134
FDLMYAK | 0.000933
FEDENFILK | 0.00131
FFEVILIDPFHK | 0.000722
FGYVDFESAEDLEK | 0.00214
FHGTVK | 0.00166
FHVEEEGK | 0.00347
FLILPDMLK | 0.000536
FLPLFDR | 0.00116
FLVYVANFDEK | 0.000821
FNVWDTAGQEK | 0.00146
FPGQLNADLRK | 0.00145

Source: the supplement of paper PMC11875167
